From US20220031841A1 (ABSCI, published 2022)

Key:
Assay in all cases: HuProt protein array, F635 z-score
[1] = biological target: T1, Cancer/testis antigen 1 (CTAG1A) (human, UniProt P78358 1-180)
T1 construct: The array carries full-length recombinant human proteins expressed in S. cerevisiae; also called NY-ESO-1; Cancer/Testis Antigen 1A
Excerpt: (§1) Large scale protein arrays are versatile and sensitive platforms for antibody specificity evaluation. They can be used for the evaluation of protein binding or affinity reagents that are widely employed in research and clinical applications. The microarray used in our target identification experiment provides the largest number of unique, full-length, individually purified human proteins on a single microscope slide. This allows thousands of interactions to be profiled in a high-throughput manner. The hill-length recombinant proteins are expressed in the yeast S. cerevisiae, purified, and printed on glass slides in duplicate along with a set of control proteins (GST, BSA, histones, IgG, etc.). Such microarray is not restricted to a particular type of surface coating, although the default is glass coated with ultra-thin nitrocellulose film for the non-covalent, yet irreversible, capture of active proteins to the surface. Fourteen Protein arrays were used for the antibody cross-reactivity assay of the samples. The antibodies were probed at […] on the arrays and incubated at room temperature for 1 hour. After probing, the arrays were washed according to the protocol and probed with Alexa-647-anti-human IgG […] specific secondary antibodies under conditions optimized for signal detection. The antibody-antigen binding score was calculated for each protein represented on the array and expressed as z-scores.
(§2) Antibody samples are probed on native HuProt arrays at 1 μg/ml and incubated at room temperature for 1 hour. After probing, the arrays are washed according to the standard protocols and probed with Alexa-647-anti-human IgG Fc gamma specific secondary antibodies under conditions optimized for signal detection.
(§3) Z score is the average Z score of the duplicate spots of a given protein (each protein is printed in duplicate on a HuProt™ array). The Z score of each spot on a given array is calculated according to the equation: […]

[2] = biological target: T2, Chromobox protein homolog 5 (CBX5) (human, UniProt P45973 1-191)
T2 construct: The array carries full-length recombinant human proteins expressed in S. cerevisiae; also called Human Chromobox protein homolog 5
T2 sequence (P45973 whole entry): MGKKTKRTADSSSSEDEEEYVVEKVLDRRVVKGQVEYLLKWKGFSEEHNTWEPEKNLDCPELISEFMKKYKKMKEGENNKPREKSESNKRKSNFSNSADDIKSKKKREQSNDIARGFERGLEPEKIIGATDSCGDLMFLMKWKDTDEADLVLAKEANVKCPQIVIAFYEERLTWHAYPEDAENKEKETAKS
Excerpt: as §1, §2, §3

[3] = biological target: T3, O-linked N-acetylglucosamine (GlcNAc) transferase (OGT) (human, UniProt O15294 2-1046)
T3 construct: The array carries full-length recombinant human proteins expressed in S. cerevisiae; also called Human OGT
T3 sequence: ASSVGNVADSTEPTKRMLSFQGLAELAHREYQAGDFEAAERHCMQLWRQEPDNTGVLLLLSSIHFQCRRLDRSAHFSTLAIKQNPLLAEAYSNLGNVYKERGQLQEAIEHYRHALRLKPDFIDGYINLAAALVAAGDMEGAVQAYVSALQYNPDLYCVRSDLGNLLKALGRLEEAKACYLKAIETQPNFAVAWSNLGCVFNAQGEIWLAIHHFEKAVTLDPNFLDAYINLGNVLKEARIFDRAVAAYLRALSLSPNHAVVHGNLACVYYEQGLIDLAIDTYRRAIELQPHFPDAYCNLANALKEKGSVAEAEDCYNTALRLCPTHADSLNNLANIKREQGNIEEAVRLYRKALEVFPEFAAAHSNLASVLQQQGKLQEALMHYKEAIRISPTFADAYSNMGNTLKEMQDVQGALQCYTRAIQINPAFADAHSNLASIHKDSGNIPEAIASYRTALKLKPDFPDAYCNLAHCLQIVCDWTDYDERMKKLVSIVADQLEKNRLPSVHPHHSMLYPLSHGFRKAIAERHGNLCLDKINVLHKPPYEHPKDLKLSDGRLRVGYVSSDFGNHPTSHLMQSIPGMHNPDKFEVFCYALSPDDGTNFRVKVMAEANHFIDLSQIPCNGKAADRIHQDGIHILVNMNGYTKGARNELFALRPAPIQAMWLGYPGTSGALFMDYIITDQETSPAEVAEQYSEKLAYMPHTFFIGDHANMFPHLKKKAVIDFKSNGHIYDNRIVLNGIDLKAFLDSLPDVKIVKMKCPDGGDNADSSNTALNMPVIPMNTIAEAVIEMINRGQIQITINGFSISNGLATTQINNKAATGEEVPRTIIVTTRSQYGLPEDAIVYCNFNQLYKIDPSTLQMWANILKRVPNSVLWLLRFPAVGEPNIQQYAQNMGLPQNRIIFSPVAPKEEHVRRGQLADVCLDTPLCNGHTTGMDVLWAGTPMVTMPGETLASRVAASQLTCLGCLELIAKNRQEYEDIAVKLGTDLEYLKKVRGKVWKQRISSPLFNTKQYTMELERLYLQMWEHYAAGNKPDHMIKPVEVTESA
Excerpt: as §1, §2, §3

[4] = biological target: T4, Alpha-taxilin (TXLNA) also known as interleukin-14A (human, UniProt P40222 1-546)
T4 construct: The array carries full-length recombinant human proteins expressed in S. cerevisiae; also called IL-14A; TXLNA/IL-14A
T4 sequence (P40222 whole entry): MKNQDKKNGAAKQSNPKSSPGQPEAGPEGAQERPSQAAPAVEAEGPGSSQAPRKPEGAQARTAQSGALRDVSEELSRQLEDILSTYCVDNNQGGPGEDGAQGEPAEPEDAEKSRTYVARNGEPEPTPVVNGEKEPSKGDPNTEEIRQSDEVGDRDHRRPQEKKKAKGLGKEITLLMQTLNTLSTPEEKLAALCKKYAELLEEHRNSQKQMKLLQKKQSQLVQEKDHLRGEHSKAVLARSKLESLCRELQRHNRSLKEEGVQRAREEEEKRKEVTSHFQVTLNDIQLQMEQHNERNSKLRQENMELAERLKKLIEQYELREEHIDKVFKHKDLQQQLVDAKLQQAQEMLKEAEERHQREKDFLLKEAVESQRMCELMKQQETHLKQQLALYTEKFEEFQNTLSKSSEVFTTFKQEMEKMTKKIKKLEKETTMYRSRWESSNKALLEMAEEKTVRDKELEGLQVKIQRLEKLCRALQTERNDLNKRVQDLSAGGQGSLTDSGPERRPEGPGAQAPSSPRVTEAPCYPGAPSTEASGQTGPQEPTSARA
Excerpt: as §1, §2, §3

[5] = biological target: T5, Inorganic pyrophosphatase (PPA1) (human, UniProt Q15181 2-289)
T5 construct: The array carries full-length recombinant human proteins expressed in S. cerevisiae; also called Human PPA1
T5 sequence: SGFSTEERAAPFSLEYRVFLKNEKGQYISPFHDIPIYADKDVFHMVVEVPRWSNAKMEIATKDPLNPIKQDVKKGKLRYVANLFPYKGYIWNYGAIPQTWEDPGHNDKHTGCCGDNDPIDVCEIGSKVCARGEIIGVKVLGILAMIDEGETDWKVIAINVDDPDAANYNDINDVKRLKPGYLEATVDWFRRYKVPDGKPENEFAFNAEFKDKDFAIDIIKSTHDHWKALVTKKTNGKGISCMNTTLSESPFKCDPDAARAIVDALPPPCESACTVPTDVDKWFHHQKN
Excerpt: as §1, §2, §3

Measured: binding result

T1 sequence (P78358 whole entry): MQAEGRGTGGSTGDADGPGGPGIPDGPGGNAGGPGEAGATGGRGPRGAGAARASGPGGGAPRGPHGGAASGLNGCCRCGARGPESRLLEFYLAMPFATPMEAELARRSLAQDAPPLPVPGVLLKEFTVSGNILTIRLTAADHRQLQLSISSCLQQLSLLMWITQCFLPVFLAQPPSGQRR

B1: TMEL1010 (antibody, V domains shown)
VH: QVQLVQSGAEVKKPGASVKVSCKASGYTFSSYGISWVRQAPGQGLEWMGWISAYNGNTNYAKKLQGRVTMTTDTSTSTAYLELRSLRSDDTAVYYCARGDGPFDYWGQGTLVTVSS
VL: EIVMTQSPATLSVSPGERATLSCWASQSVSSSLAWYQQKPGQAPRLLMYGASNRATGIPARFSGSGSGTEFTLTISSLQSEDFAVYYCQQYNKWPPDTFGQGTKLEIKR
notes: It was detected with an anti-human IgG Fc gamma secondary antibody
not listed: [5]
no binding (tested: 1 µg/ml): all other assays above

B2: TMEL1011 (antibody, V domains shown)
VH: PVQLVQSGAEVKKPGSSVKVSCKASGGTFSSYSFNWVRQAPGQGLEWMARIIPILGLANYAQKFQGRVTLTADESTSTAYMELSSLRSEDTAIFYCAGMVLGQLGFDPWGQGTLVTVSS
VL: QFMLTQPHSVSESPGRTVTISCTRSSGSIARNYVHWYQHRPGSSPTTVIYEDDQRPSGVPDRFSGSIDSSSNSASLTISGLKPEDEADYFCQSYDSNIWVFGGGTKLTVLG
notes: as for B1
not listed: [4]
no binding (tested: 1 µg/ml): all other assays above

B3: TMEL1014 (antibody, V domains shown)
VH: SVQLVESGGGVVQPGRSLRLSCAASGFTFSSYTMHWVRQAPGKGLEWVALISYDGSNKYYADSVKGRFTISRDNPKNTLYLQMNSLRVEDTAVYYCARDWTLGYWGQGTLVTVSS
VL: VSSELTQDPAVSVALGQTVRITCQGDSLRNYYANWYQQKPGQAPILVIYDKNNRPSGIPDRFSGSSSGNTASLTITGAQAEDEADYYCNSRDSSGYHLVFGGGTKLTVLG
notes: as for B1
not listed: [3]
no binding (tested: 1 µg/ml): all other assays above

B4: TMEL1012 (antibody, V domains shown)
VH: PLQLQESGPGLVKPSETLSLTCTVSGDSITTTYYWGWIRQPPGKGLEWIASIYFTGSTFHNPSLKSRVTMSVDTSKNQFSLNLSSVTAADTAVYYCARRVGNWNYVWFDPWGQGTLVSVSS
VL: AYVLTQPPSVSVAPGQTARMTCGGNNIGSKSVHWYRQRPGQAPVLVVYDDTDRPSGIPERFSGSNSGNTATLTISRVEAGDEADYYCQVWDTNSDHVVFGGGTKLTVLG
no binding (tested: 1 µg/ml): all assays above

B5: TMEL1002 (antibody, V domains shown)
VH: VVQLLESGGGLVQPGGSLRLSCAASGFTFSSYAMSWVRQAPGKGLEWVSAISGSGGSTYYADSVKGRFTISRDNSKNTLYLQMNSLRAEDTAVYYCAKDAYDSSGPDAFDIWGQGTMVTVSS
VL: ASALTQPASVSGSPGQSITISCTGTSSDVGDYNYVSWYQQHPGKAPKLMIYDVSNRPSGVSNRFSGSKSGNTASLTISGLQAEDEADYYCSSYTSSSTLVFGGGTKLTVLG
no binding (tested: 1 µg/ml): all assays above
